One molecule from article PMC12816604, “Structural basis of double-stranded RNA recognition by the J2 monoclonal antibody” can be followed below.

Broadly, the Kd is a measure of binding affinity in units of concentration.

Holding throughout (test): BLI; 100 mM KCl; BLI: 25 mM Tris-HCl pH 7.5, 2 mM MgCl2, KCl 100 mM (6-20 bp and mutants), 200 mM (30 bp) or 400 mM (40, 50 bp), 25 C; IgG immobilised on Protein A probes
What all share (conditions): protein: recombinant;recombinant; tags: His8 (C-term);; chain copies: 2;2; blunt

The target of series [1] is J2 IgG heavy chain (HC-TEV-His8) A30P;J2 IgG light chain (Mus musculus;Mus musculus, UniProt ; ;, A30P|).
For series [2], the target named is J2 IgG heavy chain (HC-TEV-His8) Y54A;J2 IgG light chain (Mus musculus;Mus musculus, UniProt ; ;, Y54A|).
For series [3], the target named is J2 IgG heavy chain (HC-TEV-His8);J2 IgG light chain (Mus musculus;Mus musculus, UniProt ; ;, |).
In series [4] the target is J2 IgG light chain Y38F;J2 IgG heavy chain (HC-TEV-His8) (Mus musculus;Mus musculus, UniProt ; ;, Y38F|).
Series [5] deals with J2 IgG heavy chain (HC-TEV-His8) Y52F;J2 IgG light chain (Mus musculus;Mus musculus, UniProt ; ;, Y52F|).
Series [6] concerns the target J2 IgG heavy chain (HC-TEV-His8) Y54F;J2 IgG light chain (Mus musculus;Mus musculus, UniProt ; ;, Y54F|).
In series [7] the target is J2 IgG heavy chain (HC-TEV-His8) Y50F;J2 IgG light chain (Mus musculus;Mus musculus, UniProt ; ;, Y50F|).
Series [8] concerns the target J2 IgG light chain Y31A;J2 IgG heavy chain (HC-TEV-His8) (Mus musculus;Mus musculus, UniProt ; ;, Y31A|).
Series [9] has as its target J2 IgG light chain Y31F;J2 IgG heavy chain (HC-TEV-His8) (Mus musculus;Mus musculus, UniProt ; ;, Y31F|).

J2 IgG light chain Y31A;J2 IgG heavy chain (HC-TEV-His8), sequence (chain, as listed by the source Y31A| | Y31A Y31A, chain 1 of 2): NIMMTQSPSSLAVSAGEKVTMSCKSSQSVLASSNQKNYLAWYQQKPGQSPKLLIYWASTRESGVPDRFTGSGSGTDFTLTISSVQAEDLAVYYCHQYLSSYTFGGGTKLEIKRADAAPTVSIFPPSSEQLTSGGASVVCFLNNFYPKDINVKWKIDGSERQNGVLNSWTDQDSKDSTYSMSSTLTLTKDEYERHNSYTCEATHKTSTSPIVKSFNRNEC
J2 IgG light chain Y31A;J2 IgG heavy chain (HC-TEV-His8), sequence (chain, as listed by the source Y31A| | Y31A Y31A, chain 2 of 2): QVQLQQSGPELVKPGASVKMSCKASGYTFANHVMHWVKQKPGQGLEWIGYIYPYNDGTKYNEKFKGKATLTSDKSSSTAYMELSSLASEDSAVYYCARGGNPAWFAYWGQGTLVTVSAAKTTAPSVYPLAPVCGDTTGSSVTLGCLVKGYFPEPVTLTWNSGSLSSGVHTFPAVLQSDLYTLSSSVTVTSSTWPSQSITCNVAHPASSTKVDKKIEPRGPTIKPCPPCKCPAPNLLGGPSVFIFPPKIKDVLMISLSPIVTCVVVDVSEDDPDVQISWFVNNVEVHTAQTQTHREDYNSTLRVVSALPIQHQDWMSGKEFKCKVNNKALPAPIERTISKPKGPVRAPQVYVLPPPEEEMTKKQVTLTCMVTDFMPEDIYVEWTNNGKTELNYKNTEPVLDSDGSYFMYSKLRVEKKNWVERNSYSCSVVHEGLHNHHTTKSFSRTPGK
J2 IgG heavy chain (HC-TEV-His8) Y52F;J2 IgG light chain, sequence (chain, as listed by the source Y52F| | Y52F Y52F, chain 1 of 2): as the sequence (chain, as listed by the source Y31A| | Y31A Y31A, chain 2 of 2) above, with Y52F counted along it
J2 IgG heavy chain (HC-TEV-His8) Y52F;J2 IgG light chain, sequence (chain, as listed by the source Y52F| | Y52F Y52F, chain 2 of 2): as the sequence (chain, as listed by the source Y31A| | Y31A Y31A, chain 1 of 2) above, with A31Y counted along it
J2 IgG heavy chain (HC-TEV-His8);J2 IgG light chain, sequence (chain, as listed by the source |, chain 1 of 2): as the sequence (chain, as listed by the source Y31A| | Y31A Y31A, chain 2 of 2) above
J2 IgG heavy chain (HC-TEV-His8);J2 IgG light chain, sequence (chain, as listed by the source |, chain 2 of 2): as the sequence (chain, as listed by the source Y31A| | Y31A Y31A, chain 1 of 2) above, with A31Y counted along it
J2 IgG light chain Y31F;J2 IgG heavy chain (HC-TEV-His8), sequence (chain, as listed by the source Y31F| | Y31F Y31F, chain 1 of 2): as the sequence (chain, as listed by the source Y31A| | Y31A Y31A, chain 1 of 2) above, with A31F counted along it
J2 IgG light chain Y31F;J2 IgG heavy chain (HC-TEV-His8), sequence (chain, as listed by the source Y31F| | Y31F Y31F, chain 2 of 2): as the sequence (chain, as listed by the source Y31A| | Y31A Y31A, chain 2 of 2) above
J2 IgG light chain Y38F;J2 IgG heavy chain (HC-TEV-His8), sequence (chain, as listed by the source Y38F| | Y38F Y38F, chain 1 of 2): as the sequence (chain, as listed by the source Y31A| | Y31A Y31A, chain 1 of 2) above, with A31Y, Y38F counted along it
J2 IgG light chain Y38F;J2 IgG heavy chain (HC-TEV-His8), sequence (chain, as listed by the source Y38F| | Y38F Y38F, chain 2 of 2): as the sequence (chain, as listed by the source Y31A| | Y31A Y31A, chain 2 of 2) above
J2 IgG heavy chain (HC-TEV-His8) Y54F;J2 IgG light chain, sequence (chain, as listed by the source Y54F| | Y54F Y54F, chain 1 of 2): as the sequence (chain, as listed by the source Y31A| | Y31A Y31A, chain 2 of 2) above, with Y54F counted along it
J2 IgG heavy chain (HC-TEV-His8) Y54F;J2 IgG light chain, sequence (chain, as listed by the source Y54F| | Y54F Y54F, chain 2 of 2): as the sequence (chain, as listed by the source Y31A| | Y31A Y31A, chain 1 of 2) above, with A31Y counted along it
J2 IgG heavy chain (HC-TEV-His8) A30P;J2 IgG light chain, sequence (chain, as listed by the source A30P| | A30P A30P, chain 1 of 2): as the sequence (chain, as listed by the source Y31A| | Y31A Y31A, chain 2 of 2) above, with A30P counted along it
J2 IgG heavy chain (HC-TEV-His8) A30P;J2 IgG light chain, sequence (chain, as listed by the source A30P| | A30P A30P, chain 2 of 2): as the sequence (chain, as listed by the source Y31A| | Y31A Y31A, chain 1 of 2) above, with A31Y counted along it
J2 IgG heavy chain (HC-TEV-His8) Y54A;J2 IgG light chain, sequence (chain, as listed by the source Y54A| | Y54A Y54A, chain 1 of 2): as the sequence (chain, as listed by the source Y31A| | Y31A Y31A, chain 2 of 2) above, with Y54A counted along it
J2 IgG heavy chain (HC-TEV-His8) Y54A;J2 IgG light chain, sequence (chain, as listed by the source Y54A| | Y54A Y54A, chain 2 of 2): as the sequence (chain, as listed by the source Y31A| | Y31A Y31A, chain 1 of 2) above, with A31Y counted along it
J2 IgG heavy chain (HC-TEV-His8) Y50F;J2 IgG light chain, sequence (chain, as listed by the source Y50F| | Y50F Y50F, chain 1 of 2): as the sequence (chain, as listed by the source Y31A| | Y31A Y31A, chain 2 of 2) above, with Y50F counted along it
J2 IgG heavy chain (HC-TEV-His8) Y50F;J2 IgG light chain, sequence (chain, as listed by the source Y50F| | Y50F Y50F, chain 2 of 2): as the sequence (chain, as listed by the source Y31A| | Y31A Y31A, chain 1 of 2) above, with A31Y counted along it

B1: 20-bp dsRNA (dsRNA)
RNA 1: GUUGUAAAGAAGGUCAAUAU
RNA 2: AUAUUGACCUUCUUUACAAC
In the case of B1, the Kd was found to be 120 ± 20 nM in [1]; 300 ± 30 nM in [2]; 120 ± 10 nM in series [3]; 150 ± 20 nM in [4]; 220 nM in [5]; 710 ± 170 nM in [6]. Besides, the Kd in series [7] was found to be 430 ± 40 nM; in series [8] it was 940 ± 560 nM; in series [9], 360 ± 60 nM.
